Sequences and labels used below:
B1: Patched domain-containing protein 1 (Mus musculus), Q14B62 (parent)
chain: MLRQVLHRGLRTCFSRLGHFIASHPVFFASAPVLISILLGASFSRYQVEESVEHLLAPQHSLAKIERNLVNSLFPVNRSKHRLYSDLQTPGRYGRVIVTSYQKANMLDQHHTDLILKLHTAVTKIQVPRPGFNYTFAHICVLNNDKTCIVDDIVHVLEELKNARATNRTNFAITYPITHLKDGRAVYNGHQLGGVTVHSKDRVKSAEAIQLTYYLQSINSLNDMVAERWESSFCDTVKLFQKSNSKVKIYPYTSSSLREDFQKTSRVSERYLVTSLILVVTMAILCCSMQDCVRSKPWLGLLGLVTISLATLTAAGIINLTGGKYNSTFLGVPFVMLGHGLYGTFEMLSSWRKTREDQHVKERTAEVYADSMLSFSLTTAMYLVTFGIGASPFTNIEAARIFCCNSCIAILFNYLYVLSFYGSSLVFTGYIENNYQHSIFCRKVPKPDVLQEKPAWYRFLLTARFSEETAEGEEANTYESHLLVCFLKRYYCDWITNTYVKPFVVLFYLIYISFALMGYLQVSEGSDLSNIVATATQTIEYTTAHQKYFNNYSPVIGFYIYESIEYWNSSVQEDVLEYTKGFVRISWFESYLNYLRKLNVSTDLPKKNFTDMLRNSFLKTPQFSHFQEDIIFSKKYNDEVDVVASRMFLVAKTMETNREELYDLLETLRRLSVTSKVKFIVFNPSFVYMDRYASSLGAPLHNSCISALFLLFFSAFLVADSLINVWITLTVVSVEFGVIGFMTLWKVELDCISVLCLIYGINYTIDNCAPLLSTFVLGKDFTRTKWVKNALEVHGVAILQSYLCYIVGLFPLAAVPSNLTCTLFRCLFLIAFVTFFHCFAILPVILTFLPPSKKKRKEKKNPENREEIECVEMVDIDSTRVVDQITTV
partner: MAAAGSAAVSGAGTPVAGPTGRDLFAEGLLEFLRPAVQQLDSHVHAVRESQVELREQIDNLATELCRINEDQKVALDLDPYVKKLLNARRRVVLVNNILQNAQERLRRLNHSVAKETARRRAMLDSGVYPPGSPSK

Data on 12 variants can be found in IntAct's records for PubMed 40475291.

The variants in the test derive from B1. To be noted: with snapn_mouse Snapin.
Regarding F549C, the “effect of a mutation on the interaction” value is given as “increasing interaction strength”.
The same measure for Q102R: “with no effect”; for D527E: “increasing interaction strength”.
The same measure for L73F: “with no effect”; for Y213C: “decreasing interaction strength”; for S51N: “with no effect”.
The value for T602A was “increasing interaction strength”; that for K181T was “decreasing interaction strength”; that for P75L was “decreasing interaction strength”.
As for P75Q, the “effect of a mutation on the interaction” value is on record as “decreasing interaction strength”.
The value for V195I was “decreasing interaction strength”.
The value for V150M was “with no effect”.
